Key:
[1] = target: gp41 N-peptide (35-70); assay: Superdex 75 gel filtration; free Fusonex elutes at 17.3 ml
[2] = target: gp41 N-peptide (35-70); assay: CD thermal melting of the peptide complex, 20-95° C.
[3] = target: HIV-1 gp160HXB (HIV-1, UniProt P04578 512-856); assay: cell-based or functional assay
Sequence of HIV-1 gp160HXB (P04578 512-856): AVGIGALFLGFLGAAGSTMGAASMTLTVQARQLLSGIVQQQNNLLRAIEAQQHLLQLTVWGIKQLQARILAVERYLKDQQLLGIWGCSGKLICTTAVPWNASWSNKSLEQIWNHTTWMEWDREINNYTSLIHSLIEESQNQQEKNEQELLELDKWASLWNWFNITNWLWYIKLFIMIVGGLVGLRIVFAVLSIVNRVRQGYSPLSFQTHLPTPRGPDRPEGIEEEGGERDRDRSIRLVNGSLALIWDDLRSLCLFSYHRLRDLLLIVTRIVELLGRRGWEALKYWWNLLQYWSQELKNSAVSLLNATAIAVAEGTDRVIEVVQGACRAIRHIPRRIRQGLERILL

Sequence of gp41 N-peptide (35-70) (P04578 546-581): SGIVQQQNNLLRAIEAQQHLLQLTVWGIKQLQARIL

| Molecule | elution peak of the complex [1] | 50% melting temperature of the complex [2] | IC50, cell-cell fusion induced by HIV-1 gp160HXB (luciferase reporter) [3] | IC50 relative to T-20, cell-cell fusion induced by HIV-1 gp160HXB [3] |
| --- | --- | --- | --- | --- |
| Fusonex (peptide) | 13.2 mL | 70 ° C. |  |  |
| T-20 (peptide) |  | 51 ° C. |  |  |
| Ac-SWETWEREIENYTKQIYKILEESQEQQDRNEKDLLE-NH2 [Fusonex] |  |  | 1.2 nM | ~0.05 fold of T-20 |

Source: patent US20040248789A1 (TIANJIN FUSOGEN BIOTECH, published 2004)
